Laboratory results reported in patent publication US20250034549.

Tests used:
[1] = target: v2.1 BE-VLP gag-ABE8e fusion
[2] = target: v2.2 BE-VLP gag-ABE8e fusion
[3] = target: v2.3 BE-VLP gag-ABE8e fusion
[4] = target: v2.4 BE-VLP gag-ABE8e fusion

B1: MMLV protease (protein)
chain: TLDDQGGQGQEPPPEPRITLKVGGQPVTFLVDTGAQHSVLTQNPGPLSDKSAWVQGATGGKRYRWTTDRKVHLATGKVTHSFLHVPDCPYPLLGRDLLTKLKAQIHFEGSGAQVMGPMGQPLQVL
fraction of cleaved ABE8e versus full-length gag-ABE8e present in purified BE-VLPs (western blot) [1]: the v2.4 linker is cleaved more efficiently than the v2.1 and v2.2 linkers, but less efficiently than the v2.3 linker
fraction of cleaved ABE8e versus full-length gag-ABE8e present in purified BE-VLPs (western blot) [2]: the v2.4 linker is cleaved more efficiently than the v2.1 and v2.2 linkers, but less efficiently than the v2.3 linker
fraction of cleaved ABE8e versus full-length gag-ABE8e present in purified BE-VLPs (western blot) [3]: the v2.4 linker is cleaved more efficiently than the v2.1 and v2.2 linkers, but less efficiently than the v2.3 linker
fraction of cleaved ABE8e versus full-length gag-ABE8e present in purified BE-VLPs (western blot) [4]: the v2.4 linker is cleaved more efficiently than the v2.1 and v2.2 linkers, but less efficiently than the v2.3 linker
